For this data set, the system named is Escherichia coli TOP10. Description: shrunken log2 fold change of peptide-encoding DNA abundance (4.5 h post-induction vs induction); higher = less antimicrobial activity (less host growth inhibition). The conditions noted are these: time post-induction: 4.5 h; library: site-saturation at positions 5, 18, 19, 20.
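Further: peptides expressed intracellularly from a pBAD plasmid library in pooled LB shake-flask culture, induced with 0.3% L-arabinose, DNA abundance read by NGS, three biological replicates, DESeq2 with apeglm shrinkage.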

As for RRIRSRPPRLPRPRPRPQKFPRP, the “shrunken log2 fold change” value was -0.14.
The result for RRIRTRPPRLPRPRPRPFIDPRP reads -1.15.
The result for RRIRLRPPRLPRPRPRPYDQPRP reads -0.562.
The result for RRIRMRPPRLPRPRPRPAMLPRP reads 1.22; that for RRIRDRPPRLPRPRPRPNNNPRP, -0.667; that for RRIRFRPPRLPRPRPRPDTGPRP, -0.356.
With RRIRQRPPRLPRPRPRPHWSPRP, the “shrunken log2 fold change” value is -0.161.
For the sequence RRIRARPPRLPRPRPRPESSPRP, the “shrunken log2 fold change” value worked out at 2.39.
As for RRIRLRPPRLPRPRPRPEQCPRP, the “shrunken log2 fold change” value is -0.0243.
For RRIRFRPPRLPRPRPRPYYPPRP, the “shrunken log2 fold change” value was -1.19.
As for RRIRLRPPRLPRPRPRPIKIPRP, the figure is 0.0507; as for RRIRVRPPRLPRPRPRPYIQPRP, -0.472.
Regarding RRIRWRPPRLPRPRPRPKNFPRP, the “shrunken log2 fold change” value is -0.188.
As for RRIRMRPPRLPRPRPRPPEGPRP, the figure is 0.338; as for RRIRNRPPRLPRPRPRPNRHPRP, -0.17; as for RRIRERPPRLPRPRPRPWFSPRP, -0.336.
Take RRIRHRPPRLPRPRPRPQIYPRP: the “shrunken log2 fold change” value was -0.137.
The result for RRIRFRPPRLPRPRPRPRTIPRP reads -0.219; that for RRIRERPPRLPRPRPRPFQTPRP, 0.11.
The result for RRIRKRPPRLPRPRPRPFVVPRP reads -0.00719; that for RRIRYRPPRLPRPRPRPIAPPRP, -0.0464; that for RRIRYRPPRLPRPRPRPPKEPRP, -0.00185.
As for RRIRSRPPRLPRPRPRPLLWPRP, the figure is 0.236.
For RRIRARPPRLPRPRPRPTDLPRP, the “shrunken log2 fold change” value was 0.274.
The result for RRIRERPPRLPRPRPRPPVYPRP reads 0.00394; that for RRIRRRPPRLPRPRPRPGKSPRP, 0.0256; that for RRIRLRPPRLPRPRPRPSWCPRP, -0.277.
The result for RRIRPRPPRLPRPRPRPKFLPRP reads 0.0917; that for RRIRMRPPRLPRPRPRPTCLPRP, 0.413; that for RRIRRRPPRLPRPRPRPRWEPRP, 0.0983.
Take RRIRIRPPRLPRPRPRPTDMPRP: the “shrunken log2 fold change” value was -0.385.
The result for RRIRNRPPRLPRPRPRPRPHPRP reads 0.226.
As for RRIRTRPPRLPRPRPRPSPRPRP, the figure is 0.396; as for RRIRPRPPRLPRPRPRPWPLPRP, 0.185; as for RRIRARPPRLPRPRPRPIDMPRP, -0.0819.
As for RRIRTRPPRLPRPRPRPFFHPRP, the figure is -0.158.
Turning to RRIRDRPPRLPRPRPRPCWCPRP, the “shrunken log2 fold change” value was -0.00088.
As for RRIRERPPRLPRPRPRPLAQPRP, the “shrunken log2 fold change” value turned out to be 0.21.
The result for RRIRQRPPRLPRPRPRPGMTPRP reads 0.00903; that for RRIRCRPPRLPRPRPRPCGLPRP, 0.0617.
As for RRIRRRPPRLPRPRPRPIKAPRP, the figure is 0.0673; as for RRIRRRPPRLPRPRPRPPITPRP, 0.13.
As for RRIRSRPPRLPRPRPRPVVDPRP, the figure is 0.125; as for RRIRMRPPRLPRPRPRPMFMPRP, 0.0101.
On to RRIRMRPPRLPRPRPRPVIVPRP, for which the “shrunken log2 fold change” value is -0.313.
Consider RRIRDRPPRLPRPRPRPVTTPRP, for which the “shrunken log2 fold change” value was 0.0135.
As for RRIRFRPPRLPRPRPRPGFWPRP, the figure is 0.24; as for RRIRTRPPRLPRPRPRPAEKPRP, 0.0882.
As for RRIRIRPPRLPRPRPRPSSKPRP, the figure is -0.599.
Consider RRIRNRPPRLPRPRPRPKQRPRP, for which the “shrunken log2 fold change” value turned out to be 0.432.
The result for RRIRRRPPRLPRPRPRPPNEPRP reads 0.804; that for RRIRCRPPRLPRPRPRPKWQPRP, 0.0444; that for RRIRDRPPRLPRPRPRPMYRPRP, -0.0107.
The result for RRIRSRPPRLPRPRPRPRMQPRP reads 0.108.
As to RRIRGRPPRLPRPRPRPPWHPRP, the “shrunken log2 fold change” value amounted to 0.396.
The result for RRIRIRPPRLPRPRPRPGMPPRP reads -0.0857; that for RRIRTRPPRLPRPRPRPMDLPRP, -0.0399; that for RRIRYRPPRLPRPRPRPPPTPRP, 0.867.
As for RRIRHRPPRLPRPRPRPFCEPRP, the figure is -0.394; as for RRIRGRPPRLPRPRPRPVQVPRP, 0.215; as for RRIRGRPPRLPRPRPRPSNGPRP, 2.8.
As for RRIRERPPRLPRPRPRPWIIPRP, the figure is -0.269.
In the case of RRIRDRPPRLPRPRPRPNLRPRP, the “shrunken log2 fold change” value was -0.162.
The result for RRIRGRPPRLPRPRPRPYVFPRP reads -0.141.
As for RRIRIRPPRLPRPRPRPWRLPRP, the figure is -0.0935.
As for RRIRERPPRLPRPRPRPTRWPRP, the figure is 0.353.
Regarding RRIRTRPPRLPRPRPRPFDHPRP, the “shrunken log2 fold change” value was -0.301.
As for RRIRQRPPRLPRPRPRPTFFPRP, the figure is -0.0813.
As for RRIRERPPRLPRPRPRPTKYPRP, the figure is -0.568; as for RRIRIRPPRLPRPRPRPSKYPRP, -1.12.
As for RRIRGRPPRLPRPRPRPRVKPRP, the figure is 0.856; as for RRIRYRPPRLPRPRPRPTLCPRP, -0.239; as for RRIRGRPPRLPRPRPRPSQWPRP, 0.101.
For RRIRDRPPRLPRPRPRPSNQPRP, the “shrunken log2 fold change” value was -0.315.
As for RRIRVRPPRLPRPRPRPWAEPRP, the figure is -0.0172; as for RRIRFRPPRLPRPRPRPVRFPRP, 0.429.
Regarding RRIRIRPPRLPRPRPRPLQMPRP, the “shrunken log2 fold change” value was -0.264.
As for RRIRWRPPRLPRPRPRPETAPRP, the figure is 0.177.
The result for RRIRVRPPRLPRPRPRPEVWPRP reads 0.405; that for RRIRDRPPRLPRPRPRPPTGPRP, 0.522; that for RRIRTRPPRLPRPRPRPHYHPRP, -0.853.
Regarding RRIRNRPPRLPRPRPRPKSEPRP, the “shrunken log2 fold change” value is -0.414.
Regarding RRIRKRPPRLPRPRPRPYFVPRP, the “shrunken log2 fold change” value is -0.264.
As for RRIRVRPPRLPRPRPRPTHFPRP, the figure is -0.266.
Turning to RRIRMRPPRLPRPRPRPVHFPRP, the “shrunken log2 fold change” value stood at 0.602.
As for RRIRQRPPRLPRPRPRPSHPPRP, the figure is -0.272.
The result for RRIRARPPRLPRPRPRPACMPRP reads 0.313; that for RRIRFRPPRLPRPRPRPPHGPRP, 0.364; that for RRIRDRPPRLPRPRPRPLKMPRP, 0.122.
As for RRIRVRPPRLPRPRPRPPPLPRP, the figure is 0.669; as for RRIRVRPPRLPRPRPRPRRNPRP, 0.108; as for RRIRGRPPRLPRPRPRPIKPPRP, -0.0362.
RRIRTRPPRLPRPRPRPPFMPRP: the “shrunken log2 fold change” value is -0.194.
The result for RRIRHRPPRLPRPRPRPCGYPRP reads -0.0081.
The result for RRIRQRPPRLPRPRPRPFSIPRP reads -0.104; that for RRIRARPPRLPRPRPRPTKEPRP, 0.0091; that for RRIRARPPRLPRPRPRPPCNPRP, 0.0888.
The result for RRIRERPPRLPRPRPRPWVWPRP reads 0.0922; that for RRIRARPPRLPRPRPRPTRCPRP, 1.1; that for RRIRSRPPRLPRPRPRPKVDPRP, 0.093.
As to RRIRWRPPRLPRPRPRPREVPRP, the “shrunken log2 fold change” value stood at 0.477.
As for RRIRRRPPRLPRPRPRPIRFPRP, the figure is 0.0747.
As for RRIRMRPPRLPRPRPRPYDNPRP, the figure is 0.213.
As for RRIRDRPPRLPRPRPRPNDNPRP, the figure is -0.563; as for RRIRWRPPRLPRPRPRPEHPPRP, 0.16; as for RRIRERPPRLPRPRPRPQLIPRP, -0.759.
On to RRIRCRPPRLPRPRPRPTAQPRP, for which the “shrunken log2 fold change” value was 0.301.
As for RRIRLRPPRLPRPRPRPRPHPRP, the figure is 0.364.
Consider RRIRTRPPRLPRPRPRPCHDPRP, for which the “shrunken log2 fold change” value is -0.215.
The result for RRIRDRPPRLPRPRPRPYCVPRP reads 0.00706; that for RRIRQRPPRLPRPRPRPWNTPRP, -0.169; that for RRIRPRPPRLPRPRPRPLQMPRP, 0.205.
The result for RRIRMRPPRLPRPRPRPWLLPRP reads -0.0297.
For the sequence RRIRARPPRLPRPRPRPRWRPRP, the “shrunken log2 fold change” value came out at 0.934.
As for RRIRGRPPRLPRPRPRPMSRPRP, the figure is 0.00829; as for RRIRARPPRLPRPRPRPNNRPRP, -0.326.
The result for RRIRLRPPRLPRPRPRPLDRPRP reads 0.25; that for RRIRCRPPRLPRPRPRPGCWPRP, 0.569.
As for RRIRQRPPRLPRPRPRPQGVPRP, the figure is 0.0036.
In the case of RRIRFRPPRLPRPRPRPFWDPRP, the “shrunken log2 fold change” value was -0.374.
The result for RRIRHRPPRLPRPRPRPVHGPRP reads 0.131; that for RRIRHRPPRLPRPRPRPEMDPRP, 0.015; that for RRIRYRPPRLPRPRPRPYGIPRP, -0.064.
The result for RRIRSRPPRLPRPRPRPNSTPRP reads -0.573; that for RRIRFRPPRLPRPRPRPFPTPRP, -0.0582.

The record behind these values is the supplement of paper PMC9112550, “Optimization of the antimicrobial peptide Bac7 by deep mutational scanning” (BMC Biology, 2022).
